Experimental data taken from article PMC4070910, “Cathepsin S Signals via PAR2 and Generates a Novel Tethered Ligand Receptor Agonist” (PLoS ONE, 2014).
Like-named read-outs stand apart in the source and are kept apart here.

Assays:
human PAR2 = experiment: Fura-2 calcium imaging in HeLa cells transfected with PAR2 cDNA; format: cell-based; conditions: PAR2-transfected HeLa; KVDGTS 100 µM, cathepsin S 2 µM, papain 2 µM, trypsin 10 nM; second agent after up to 60 minutes; room temperature
Protocol: Human PAR2 cDNA was cloned as an Xho I-Hind III fragment (1206 bp) into pcDNA3.1(−). 10 µg of DNA were diluted into 0.5 ml of DMEM and mixed with 0.5 ml of DMEM containing 10 µl of Lipofectamine 2000 transfection reagent and incubated at room temperature for 20 minutes. HeLa cells were grown to confluence, trypsinized and 1×10^6 cells were pelleted in a 15 ml tube by centrifugation at 1000 rpm for 5 minutes. The DMEM-Lipofectamine 2000-DNA mixture (1 ml) was added to the cell pellet, resuspended gently and incubated at room temperature for 20 minutes. Four ml of complete DMEM with 10% FBS were added to the tube, mixed by inverting the tube several times, plated into a 96-well glass bottom plate at 20,000 cells/well, and placed in a 37°C CO2 incubator. HeLa cells transfected with vector alone or salmon sperm DNA (shown in the figures) were plated as a control. The medium was aspirated two days after transfection. Fura-2 was used as a ratiometric calcium-sensitive indicator as follows. 100 µl of complete DMEM containing 2 µM of Fura-2 were added to each well and left at room temperature in the dark for 1 hr. Following loading with Fura-2, the medium was aspirated and replaced with 90 µl of HEPES-buffered saline (20 mM HEPES, 115 mM NaCl, 5.4 mM KCl, 2 mM CaCl2, 0.8 mM MgCl2, 13.8 mM glucose, pH 7.4).
Imaging was performed using a Zeiss Axiovert 200 M microscope platform equipped with a flipping filter wheel for ratiometric imaging. Axiovision software, version 4.6 was used for image analysis of the cells which were excited at 340 nm and 380 nm. Ten µl of peptide agonist were added at 20 seconds after the start of the excitation procedure. Images were taken every 5 seconds, including at zero time, during a 3-minute period or longer if required. The software later analyzed all images taken during each excitation period. Typically, ratiometric changes were measured in 10–20 cells in each image. An average of the fluorescence of the cells in each image was calculated and plotted against time in seconds.
HeLa cells transfected with PAR2 cDNA were subjected to ratiometric imaging as described above with PAR2 peptides, SLIGRL, KVDGTS, and SLIGKVDGTS in addition to the reverse peptides LRGILS and STGDVK at concentrations from 1 nM - 1 mM. Each of the concentration-dependent readings was performed in triplicate. Maximum intensities at each of the dilutions were calculated and plotted against concentration using GraphPad/PRISM software version 6.0 (Irvine, CA). Error bars represent +/−SEM.

PAR2 = conditions: in vitro, cited from earlier work
Source text: PAR2 signaling has been implicated in the development of inflammatory and bowel diseases, asthma, itch and pain. The receptor is expressed on many types of cells including keratinocytes, sensory neurons, fibroblasts, endothelial cells, and inflammatory cells, [3]. Consistent with this broad expression, PAR2 is involved in numerous physiologic and pathophysiologic processes in response to both endogenous and exogenous proteases.

| Molecule | effect as first agent on calcium response to second agent (in words) (human PAR2) | PAR2 activation (in words) (PAR2; plant proteases) | PAR2 activation (in words) (PAR2; dust mite allergen) |
| --- | --- | --- | --- |
| papain: plant protease (protein, UniProt P00784 134-345, looked up) Papain: IPEYVDWRQKGAVTPVKNQGSCGSCWAFSAVVTIEGIIKIRTGNLNEYSEQELLDCDRRSYGCNGGYPWSALQLVAQYGIHYRNTYPYEGVQRYCRSREKGPYAAKTDGVRQVQPYNEGALLYSIANQPVSVVLEAAGKDFQLYRGGIFVGPCGNKVDHAVAAVGYGPNYILIKNSWGTGWGENGYIRIKRGTGNSYGVCGLYTSSFYPVKN | failed to induce a calcium response at any time up to 60 minutes | supporting activation | – |
| der p 1: dust mite allergen (protein, UniProt P08176 99-320, looked up) Peptidase 1: TNACSINGNAPAEIDLRQMRTVTPIRMQGGCGSCWAFSGVAATESAYLAYRNQSLDLAEQELVDCASQHGCHGDTIPRGIEYIQHNGVVQESYYRYVAREQSCRRPNAQRFGISNYCQIYPPNVNKIREALAQTHSAIAVIIGIKDLDAFRHYDGRTIIQRDNGYQPNYHAVNIVGYSNAQGVDYWIVRNSWDTNWGDNGYGYFAANIDLMMIEEYPYVVIL | – | – | supporting activation |
